From paper PMC2705282 (Journal of molecular biology, 2009) come the findings set out here.

To fix the notation:
B1: wild-type URO-D module of single-chain URO-D (enzyme, human)
chain: MEANGLGPQGFPELKNDTFLRAAWGEETDYTPVWCMRQAGRYLPEFRETRAAQDFFSTCRSPEACCELTLQPLRRFPLDAAIIFSDILVVPQALGMEVTMVPGKGPSFPEPLREEQDLERLRDPEVVASELGYVFQAITLTRQRLAGRVPLIGFAGAPWTLMTYMVEGGGSSTMAQAKRWLYQRPQASHQLLRILTDALVPYLVGQVVAGAQALQLFESHAGHLGPQLFNKFALPYIRDVAKQVKARLREAGLAPVPMIIFAKDGHFALEELAQAGYEVVGLDWTVAPKKARECVGKTVTLQGNLDPCALYASEEEIGQLVKQMLDDFGPHRYIANLGHGLYPDMDPEHVGAFVDAVHKHSRLLRQN
B3: F217Y URO-D module of single-chain URO-D (enzyme, human)
chain: MEANGLGPQGFPELKNDTFLRAAWGEETDYTPVWCMRQAGRYLPEFRETRAAQDFFSTCRSPEACCELTLQPLRRFPLDAAIIFSDILVVPQALGMEVTMVPGKGPSFPEPLREEQDLERLRDPEVVASELGYVFQAITLTRQRLAGRVPLIGFAGAPWTLMTYMVEGGGSSTMAQAKRWLYQRPQASHQLLRILTDALVPYLVGQVVAGAQALQLYESHAGHLGPQLFNKFALPYIRDVAKQVKARLREAGLAPVPMIIFAKDGHFALEELAQAGYEVVGLDWTVAPKKARECVGKTVTLQGNLDPCALYASEEEIGQLVKQMLDDFGPHRYIANLGHGLYPDMDPEHVGAFVDAVHKHSRLLRQN

Experiment [1] addresses B3. Kind of experiment: crystal structure.
The target of experiment [2] is B1. Kind of experiment: crystal structure.

As to B1, the binding result in experiment [1] is “binds”.

B2: Y164G URO-D module of single-chain URO-D (enzyme, human)
chain: MEANGLGPQGFPELKNDTFLRAAWGEETDYTPVWCMRQAGRYLPEFRETRAAQDFFSTCRSPEACCELTLQPLRRFPLDAAIIFSDILVVPQALGMEVTMVPGKGPSFPEPLREEQDLERLRDPEVVASELGYVFQAITLTRQRLAGRVPLIGFAGAPWTLMTGMVEGGGSSTMAQAKRWLYQRPQASHQLLRILTDALVPYLVGQVVAGAQALQLFESHAGHLGPQLFNKFALPYIRDVAKQVKARLREAGLAPVPMIIFAKDGHFALEELAQAGYEVVGLDWTVAPKKARECVGKTVTLQGNLDPCALYASEEEIGQLVKQMLDDFGPHRYIANLGHGLYPDMDPEHVGAFVDAVHKHSRLLRQN
In the case of B2, the binding result in experiment [2] is given as “binds”.

Regarding B3, the binding result in experiment [2] is “binds”.
